Source: patent publication US20230295297A1 (Alector, published 2023)
Residue numbers refer to the chain shown, from its start.

What was measured:
[1] = target: T1, recombinant human TREM2-DAP12 fusion protein expressed on cells (human); assay: KD cell binding
T1 construct: also called HEKhT2; 293 cells expressing human TREM2; not shown: None of these limits is stated
T1 chain: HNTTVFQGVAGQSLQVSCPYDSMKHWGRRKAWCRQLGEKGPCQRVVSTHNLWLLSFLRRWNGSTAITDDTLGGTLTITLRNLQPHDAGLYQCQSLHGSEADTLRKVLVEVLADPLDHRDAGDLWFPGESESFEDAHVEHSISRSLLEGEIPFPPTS

[2] = target: T2, human TREM2 on primary cells (human, UniProt Q9NZC2 19-230); assay: FACS, primary hDC
T2 construct: also called TREM2 on hDC; hMAC
T2 sequence: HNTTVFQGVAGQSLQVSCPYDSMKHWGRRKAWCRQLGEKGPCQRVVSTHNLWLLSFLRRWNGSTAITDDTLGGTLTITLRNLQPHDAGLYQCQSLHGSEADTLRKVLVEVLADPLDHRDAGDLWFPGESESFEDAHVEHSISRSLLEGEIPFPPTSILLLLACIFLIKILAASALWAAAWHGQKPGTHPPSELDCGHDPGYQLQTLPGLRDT

[3] = target: T1, recombinant human TREM2-DAP12 fusion …; assay: FACS, HEKhT2 cells
[4] = target: T2, human TREM2 on primary cells; assay: FACS, primary hMAC
mouse TREM2 on cells [5] = target: T3, mouse TREM2 on cells (mouse, UniProt Q99NH8 19-227); assay: FACS on thioglycollate-induced macrophages of wild-type mice (mouse TREM2 only), gated CD11b+ F4/80+
T3 construct: recombinant on BWZ cells (with DAP12) and native on mouse macrophages; also called BWZmT2; BWZ T2
T3 sequence: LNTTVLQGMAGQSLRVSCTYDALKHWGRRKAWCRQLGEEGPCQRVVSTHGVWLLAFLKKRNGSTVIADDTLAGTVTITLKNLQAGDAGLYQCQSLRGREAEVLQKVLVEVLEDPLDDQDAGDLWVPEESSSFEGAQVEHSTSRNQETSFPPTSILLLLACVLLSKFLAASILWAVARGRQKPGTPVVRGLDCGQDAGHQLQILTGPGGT

mouse TREM2 on cells [6] = target: T3, mouse TREM2 on cells; assay: KD cell binding
E151A [7] = target: T4, E151A; assay: shotgun alanine scanning: immunofluorescence flow cytometry on HEK-293T cells expressing the mutant chimera
T4 construct: also called hTREM2-Dap12 chimera with E151A; not shown: Transmembrane/cytoplasmic stretch and the Dap12 portion of the chimera
T4 chain: T1 chain with E133A

D152A [8] = target: T5, D152A; assay: as above
T5 construct: also called hTREM2-Dap12 chimera with D152A; not shown: Transmembrane/cytoplasmic stretch and the Dap12 portion of the chimera
T5 chain: T1 chain with D134A

H154A [9] = target: T6, H154A; assay: as above
T6 construct: also called hTREM2-Dap12 chimera with H154A; not shown: Transmembrane/cytoplasmic stretch and the Dap12 portion of the chimera
T6 chain: T1 chain with H136A

K42A = target: T7, K42A; assay: shotgun alanine scanning: immunofluorescence flow cytometry on HEK-293T cells expressing the mutant chimera; mean of duplicates, range in brackets
T7 construct: also called hTREM2-Dap12 chimera with K42A; not shown: Transmembrane/cytoplasmic stretch and the Dap12 portion of the chimera
T7 chain: T1 chain with K24A

G45A = target: T8, G45A; assay: as above
T8 construct: also called hTREM2-Dap12 chimera with G45A; not shown: Transmembrane/cytoplasmic stretch and the Dap12 portion of the chimera
T8 chain: T1 chain with G27A

R77A = target: T9, R77A; assay: as above
T9 construct: also called hTREM2-Dap12 chimera with R77A; not shown: Transmembrane/cytoplasmic stretch and the Dap12 portion of the chimera
T9 chain: T1 chain with R59A

H114A = target: T10, H114A; assay: as above
T10 construct: also called hTREM2-Dap12 chimera with H114A; not shown: Transmembrane/cytoplasmic stretch and the Dap12 portion of the chimera
T10 chain: T1 chain with H96A

E151A [10] = target: T4, E151A; assay: as above
D152A [11] = target: T5, D152A; assay: as above
H154A [12] = target: T6, H154A; assay: as above
E156A = target: T11, E156A; assay: as above
T11 construct: also called hTREM2-Dap12 chimera with E156A; not shown: Transmembrane/cytoplasmic stretch and the Dap12 portion of the chimera
T11 chain: T1 chain with E138A

B1: 3A2 (antibody, IgG1, V domains shown)
VH: QVQLQQSGAELVKPGASVKMSCKTSGYPFSNFWITWVKQRPGQGLVWIGDIYPGSDNSNYNEKFKTKATLTVDTSSSTAYMHLSSLTSEDSAVYFCAREAYYTNPGFAYWGQGTLVTVST
VL: DVVMTQTPLSLPVSLGDQASISCRSSQTIIHSNGNTYLEWYLRKPGQSPKLLIYKVSNRFSGVPDRFSGSGSGTDFTLKISRVEAEDLGVYYCFQGSHVPYTFGGGTELEIK
notes: mIgG1; variable domains built FR1-HVR1-FR2-HVR2-FR3-HVR3-FR4
[1]
  Kd: 4.98 nM
[2]
  % Positive hDC: 77%
[3]
  MFI HEKhT2: 7300 MFI
[4]
  % Positive hMAC: 18%

B2: 6H2 (antibody, IgG2a, V domains shown)
VH: QVQLQESGPGLVQPSQSLSIICTVSAFSLTNYAVHWIRQSPGKGLEWLGVIWSGGSTAFNAAFISRLNISKDNSKSQVFFKMNSLQSDDTAIYYCATHYYRSTYAFSYWGQGTLVTVSA
VL: B1 VL with V3L, T28S, I30V, R43Q, Y101F, G105S, E108K
notes: mIgG2a
[1]
  Kd: 5.4 nM
[2]
  % Positive hDC: 83.9%
[3]
  MFI HEKhT2: 13500 MFI

B3: 10A9 (antibody, IgG1, V domains shown)
VH: B1 VH with L11V, S58R, Y60F, K63R, T120A
VL: B1 VL with S61C
notes: mIgG1
[1]
  Kd: 4.24 nM
[2]
  % Positive hDC: 96%
[3]
  MFI HEKhT2: 11900 MFI
[4]
  % Positive hMAC: 64%
Mouse TREM2 on cells [5]
  binding result: no binding

B4: 2H8 (antibody, IgG1, V domains shown)
VH: EVQLVESGGGLVQPKGSLKLSCAASGFSFNTYAMNWVRQAPGKGLEWIARIRSKSNNYATYYADSVKDRFTCSRDDSENMFYLQLSSLKTEDTAMYYCVRHGDGNLWYIDVWGTGTTVTVSS
VL: NVLTQSPALMSASPGEKVTMTCSASSSVSYMYWYQQKPRSSPKPWIYLTSILASGVPARFSGSGSGTSYSLTISSMEAEDAATYYCQQWSFNPYTFGGGTKLVIK
notes: mIgG1
Mouse TREM2 on cells [6]
  Kd: 6.86 nM

B5: 7F8 (antibody, IgG1, V domains shown)
VH: B4 VH with F70I, S122T
VL: VLTQSPALMSASPGEKVTMTCSASSSVSYMYWYQQKPRSSPKPWIYLTSILASGVPARFSGSGSGTSYSLTINNMEAEDAATYYCQQWSFNPYTFGGGTKLVIK
notes: mIgG1
Mouse TREM2 on cells [6]
  Kd: 1.78 nM

B6: 8A1 (antibody, IgG2a, V domains shown)
VH: EVQLQQSGAELVKPGASVKISCKASGYAFSNYWMSWVKQRPGKGLEWIGQIYPGDGDTKYNGKFEGKATLTADKSSSTAYMQLSSLTSEDSAVYFCSREKGADYYGSTYSAWFSYWGQGTLVTVSA
VL: DIQMTQSPASLSVSVGETVTITCRTSENVYSNLAWYQQKQGKSPQLLVYAATNLADGVPSRFSASGSATQFSLKINSLQSADFGSYYCHHFWGTPYTFGGGTKLEMN
notes: mIgG2a
[1]
  Kd: 4.64 nM
[2]
  % Positive hDC: 94%
[3]
  MFI HEKhT2: 11000 MFI
[4]
  % Positive hMAC: 34%

B7: 9F5 (antibody, IgG1, V domains shown)
VH: QVQLQQSGPELVKPGASLKISCKASGYAFSSSWMNWVKQRPGKGLEWIGRIYPGDGDTNYNGEFRVRATLTADTSSTTAYMQLSSLTSEDSAVYFCARLLRNQPGESYAMDYWGQGASVTVSS
VL: DVVMTQTPLSLPVSLGDQASISCRSSQSLVHSNGYTYLHWYLQKPGQSPKLLIYKVSNRFSGVPDRFSGSGSGTDFTLKISRVEADDLGVYFCSQSTRVPYTFGGGTKLEIK
notes: mIgG1; VH FR 169/184/202/216, HVR 60/78/97; also called mAb T2-9F5.1; 9F5 MAb
[1]
  Kd: 0.96 nM
[2]
  % Positive hDC: 73%
[3]
  MFI HEKhT2: 2910 MFI
[4]
  % Positive hMAC: 26%
Mouse TREM2 on cells [5]
  binding result: no binding
E151A [7]
  binding result: no binding
D152A [8]
  binding result: no binding
H154A [9]
  binding result: no binding
K42A
  Binding Reactivity (% WT): 131 % WT
G45A
  Binding Reactivity (% WT): 145 % WT
R77A
  Binding Reactivity (% WT): 124 % WT
H114A
  Binding Reactivity (% WT): 114 % WT
E151A [10]
  Binding Reactivity (% WT): 4.8 % WT
D152A [11]
  Binding Reactivity (% WT): 2.7 % WT
H154A [12]
  Binding Reactivity (% WT): 3 % WT
E156A
  Binding Reactivity (% WT): 17.7 % WT

B8: 9G1 (antibody, IgG1, V domains shown)
VH: QVQLQQSGAELVKPGASVKLSCKASGYIFTTYWIHWVKQRPGRGPEWIGRIDPNNGDTNYNEKFKTKATLTVDKPSSTADMQLSSLTSEDSAVYYCVMTGTDFDYWGQGTTLTVSS
VL: B7 VL with V3L, S25F, Y35N, K79R, R82G, D86E, Y101P
notes: mIgG1
[1]
  Kd: 9.06 nM
[2]
  % Positive hDC: 60%
[3]
  MFI HEKhT2: 3080 MFI
[4]
  % Positive hMAC: 20%
